Key:
[1] = molecular target: H2AK119ub1-modified nucleosome core particle (NCP) (Xenopus | not stated) (UniProt P0CG47); assay: BLI; biotin-labeled nucleosomes immobilised on streptavidin (SA) XT biosensors (Gator), protein in solution; 30 °C, 1000 rpm; 20 mM Tris-HCl pH 7.5, 50 mM NaCl, 1 mM DTT, 0.01% Tween-20; 3 min association, 6 min dissociation
[2] = molecular target: H2AK119ub1-modified nucleosome core particle (NCP) (Xenopus | not stated) (UniProt P0CG47); assay: BLI; competition: DNMT3A1 UDR loaded to biosensors pre-loaded with H2AK119ub1-modified NCP and various concentrations of tag-free JARID2(1-60)

Kd [1] [nM] | percent decrease of the DNMT3A1 UDR association response at a JARID2(1-60):DNMT3A1 UDR molar ratio of 32:1 [2] [%] | Substance
250 | – | GST-tagged N-terminal segment of JARID2 (residues 1–60) (from UniProt Q92833 1-60) (domain or fragment)
– | 40 | tag-free JARID2 N-terminal segment (residues 1–60) (from UniProt Q92833 1-60) (domain or fragment)

From PMC11266573
